# Test results published in the RNAGym collection of RNA variant scans (doi:10.1073/pnas.2313332121).
# B1: TPR t1 (parent)
# chain: GACCAAUCUGCCCUCAGAGCUCGAGAACAUCUUCGGAUGCAGAGGAGGCAGGCUUCGGUGGCGCGAUAGCGCCAACGUCCUCAACCUCCAAUGCAUCCCACCACAUGAUGAUGCCUGAAGAGCCUUGGUUUUUUG
# Variants of: B1
# Test: polymerase ribozyme fitness, log enrichment relative to wild type (log ratio); higher = more active; in vitro selection for triplet polymerase activity
# In short: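 Streptavidin-bead capture of gel-excised extended constructs, followed by RT-PCR, closed a single triplicate in vitro selection round. That round began by annealing PCR-built, transcribed mutant libraries of each subunit of a heterodimeric triplet polymerase ribozyme with a biotinylated primer, the partner subunit and triplets, then incubating them frozen at −7 °C. After Illumina sequencing of inputs and outputs, genotypes needed ≥10 input reads and ≥1 read per output. Fitness is the base-2 logarithm of genotype enrichment over wild-type enrichment, using inverse-variance-weighted replicate averages.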
row,Variant,polymerase ribozyme fitness (log ratio)
1,GACCAAUCUGCCCUCAGAGCUCGAGAACAUCUUCGGAUGCAGAGGAGACAGGCUUCGGUGGCUCGAUAGCGCCAACGUCCUCAACCUUCAAUGCAUCCCACCACAUGAUGAUGCCUGAAGAGCCUUGGUUUUUUG [G48A G63U C88U],-1.66
2,GACCAAUCUGCCCUCAGAGCUCGAGAACAUCUUCGGAUGCAGAGGAGACAGGCUUCGGUGGCCCGAUAGCGCCAACGUCCUCAACCUCCAAUGCAUCCCACCACAUGAUGAUGCCUGAAGAGCCUUGGUUUAUUG [G48A G63C U132A],-1.12
3,GACCAAUCUGCCCUCAGAGCUCGAGAACAUCUUCGGAUGCAGAGGAGACAGGCUUCGGUGGCGCGAUAGCGCCAACGUCCUCAACCUCCAAUGCAUCCCACCACAUAAUGAUGCCUGAAGAGCCUUGGUUUUUUG [G48A G107A],-7.39
4,GACCAAUCUGCCCUCAGAGCUCGAGAACAUCUUCGGAUGCAGAGGAGACAGGCUUCGGUGGCACGAUAGCGCCAACGUCCUCAACCUCCAAUGCAUACCACCACAUGAUGACGCCUGAAGAGCCUUGGUUUUUUG [G48A G63A C97A U112C],-4.92
5,GACCAAUCUGCCCUCAGAGCUCGAGAACAUCUUCGGAUGCAGAGGAGACAGGCUUCGGUGGCGCGAUAGCACCAACGUCCUCAACCUCCAAUGCAUCCCACCACAUGAUGAUGCCUGAAGAGCCUUGGUUUUUUG [G48A G71A],-1.09
6,GACCAAUCUGCCCUCAGAGCUCGAGAACAUCUUCGGAUGCAGAGGAGACAGGCUUCGGUGGCGCGAUAGCGCCAACGUCCUCAACCUCCAAUACAUCCCACCACAUGAUGAUGGCUGAAGAGCCUUGGUUUUUUG [G48A G93A C114G],-3.84
7,GACCAAUCUGCCCUCAGAGCUCGAGAACAUCUUCGGAUGCAGAGGAGACAGGCUUCGGUGGCGCGAUACCGCCAACGUCCUCAACCUCCAAUGCAUCCCACCACAUGAUGAUGCCUGAAGAGUCUUGGUUUUUUG [G48A G69C C123U],-0.587
8,GACCAAUCUGCCCUCAGAGCUCGAGAACAUCUUCGGAUGCAGAGGAGACAGGCUUCGGUGGCGCGAUAGCGCCAACUUCCUCAACCUCCAAUGCAUCCCACCACAUGAUGAUGCCUGAAGAGCCUUGGUUUUUUU [G48A G77U G135U],-1.78
9,GACCAAUCUGCCCUCAGAGCUCGAGAACAUCUUCGGAUGCAGAGGAGCCAGGCUUCGGUGGCGCGAUAGCGCCAACGUCCUCAACCUCCGAUGCAUCCCACCACAUGAUGAUGCCUGAAGAGCCUUGGUUUUUUG [G48C A90G],0.432
10,GACCAAUCUGCCCUCAGAGCUCGAGAACAUCUUCGGAUGCAGAGGAGACAGGCUUCGGAGGCGCGAUAGCGCCAACGUUCUCAACCUCCAAUGCAUCCCACCACAUGAUGAUGCCUGAAGAGCCGUGGUGUUUUG [G48A U59A C79U U125G U130G],-1.48
11,GACCAAUCUGCCCUCAGAGCUCGAGAACAUCUUCGGAUGCAGAGGAGACAGGCUUCGGUGGCGCGAUAGCGCCAACGUCCUCAACCUCCAAUGCAACCCACCACAUGAUGAUGCCUGAAGAGCCUUGGUUUUUUG [G48A U96A],-1.94
12,GACCAAUCUGCCCUCAGAGCUCGAGAACAUCUUCGGAUGCAGAGGAGACAGGCUUCGGUGGCGCGAUAUCGCCAACGUCCUCAACCUCCAAUGCAUCGCACCACAUGAUGAUGCCUGAAGAGCCAUGGUUCUUUG [G48A G69U C98G U125A U131C],-3.58
13,GACCAAUCUGCCCUCAGAGCUCGAGAACAUCUUCGGAUGCAGAGGAGACAGGCUUCGGUGUCGCGAUAGCGCCAACGUCCUCAACCUCCAAUGCAUCCCACCACAUGAUGAUGCCUGAAGAGCCUUGGUUUUUUG [G48A G61U],-0.0763
14,GACCAAUCUGCCCUCAGAGCUCGAGAACAUCUUCGGAUGCAGAGGAGACAGGCUUCGGUGGCGCGAUAGCGCCAACGUCCUCAACCUCCAAUGCAUCCCACCACAUGAUGAUGCCUGAAGAGCCUGGGUUUUUUG [G48A U126G],-2.42
15,GACCAAUCUGCCCUCAGAGCUCGAGAACAUCUUCGGAUGCAGAGGAGACAGGCUUCGGUGGCGCGAUACCGCCAACGUUCUCAACCUCCAAGGCAUCCCACCACAUGAUGAUGCCCGAACAGCCUUGGUUUUUUG [G48A G69C C79U U92G U116C G120C],-7.13
16,GACCAAUCUGCCCUCAGAGCUCGAGAACAUCUUCGGAUGCAGAGGAGACAGGCUUCGGUGGCGCGAUAUCGCCAACGUCCUGAACCUCCAAUGCAUCCCACCACAUGAUGAUUCCUGAAGAGCCUUGGUUUAUUG [G48A G69U C82G G113U U132A],-2.33
17,GACCAAUCUGCCCUCAGAGCUCGAGAACAUCUUCGGAUGCAGAGGAGACAGGCUUCGGUGGCGCGAUAGCGCCAACGUCCUCAACCUCCAAAGCAUCCCACCACAUGAUGAUGCCUGAAGAGCCUUGGUUUUUUG [G48A U92A],-3.51
18,GACCAAUCUGCCCUCAGAGCUCGAGAACAUCUUCGGAUGCAGAGGAGCCGGGUUUCGGUGGCGCGAUAGCGCGAACGUCCUCAACCUCCAAUGCAUCCCACCACAUGAUGAUGCCUGAAGAGCCUUGGUUUUUUG [G48C A50G C53U C73G],-1.36
19,GACCAAUCUGCCCUCAGAGCUCGAGAACAUCUUCGGAUGCAGAGGAGACAGGCUUCGGUGGCGCGAUAGCGCCAACGUCCUCAACCUCCAAUGCAUCCCACCACAUGAUGAUCCCUGAAGAGCCUUGGUUUUUUG [G48A G113C],-2.26
20,GACCAAUCUGCCCUCAGAGCUCGAGAACAUCUUCGGAUGCAGAGGAGACAGGCUUCGGUGGCGCGAUAGCGCCAACGUCCUCAACCUCCAAUGCAUCCCACCACAUGAUGAUGCCUAAAGAGCCUUGGUUUUUUG [G48A G117A],-2.44
21,GACCAAUCUGCCCUCAGAGCUCGAGAACAUCUUCGGAUGCAGAGGAGCCAGGCUUCGGUGGCGCGAUAGCGCCAACGUCCUCAACCUCCUAUGCAUCCCACCACAUGAUGAAGCCUGAAGAGCCUUGGUUUUUUG [G48C A90U U112A],-0.162
